# From patent US20240124563A1 (NANJING ZAIMING PHARMACEUTICAL, published 2024)
# T1: human MSLN-R3-3 polypeptide (purchased from GL Biochem, Cat. No. 406676) (human)
# T1 construct: Printed as Val539-Val588; also called hMSLN-R3-3
# T1 peptide: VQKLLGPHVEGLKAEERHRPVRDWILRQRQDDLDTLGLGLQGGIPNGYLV
# B1: Tab020 (YP223, rabbitIgG1) (antibody, V domains shown)
# VH: QEQLEESGGDLVQPEGSLTLTCKASGLDFSSSYWICWVRQAPGKGLEWIGCRHTFTANTWSASWVNGRFTISRSTSLGTVDLKMTSLTAADTATYFCARDESNNDGWDFKLWGPGTLVTVSS
# VL: AYDMTQTPASVSAAVGGTVTIKCQASQSISNYLAWYQQKPGQPPKLLIYQASTLAPGVSSRFKGSGSGTEFTLTISGVECADAATYYCQQGYTSSNVENVFGGGTGVVVGD
# notes: also called YP223 rabbit IgG1 antibody; rabbit anti-human MSLN antibody (Tab020)
# B2: Tab106 (YP218, hIgG1) (antibody, V domains shown)
# VH: QQQLEESGGGLVKPEGSLTLTCKASGFDLGFYFYACWVRQAPGKGLEWIACIYTAGSGSTYYASWAKGRFTISKASSTTVTLQMTSLAAADTATYFCARSTANTRSTYYLNLWGPGTLVTVSS
# VL: DVVMTQTPASVSEPVGGTVTIKCQASQRISSYLSWYQQKPGQRPKLLIFGASTLASGVPSRFKGSGSGTEYTLTISDLECADAATYYCQSYAYFDSNNWHAFGGGTEVVVRT
# notes: also called YP218 human IgG1 antibody
# B3: Tab106 (YP218, hIgG1) (antibody, V domains shown)
# VH: QQQLEESGGGLVKPEGSLTLTCKASGFDLGFYFYACWVRQAPGKGLEWIACIYTAGSGSTYYASWAKGRFTISKASSTTVTLQMTSLAAADTATYFCARSTANTRSTYYLNLWGPGTLVTVSS
# VL: DVVMTQTPASVSEPVGGTVTIKCQASQRISSYLSWYQQKPGQRPKLLIFGASTLASGVPSRFKGSGSGTEYTLTISDLECADAATYYCQSYAYFDSNNWHAFGGGTEVVVRT
# notes: also called YP218 human IgG1 antibody; anti-human MSLN-R3 antibody (Tab106)
# B4: Tab106 (YP218, hIgG1) (antibody, V domains shown)
# VH: QQQLEESGGGLVKPEGSLTLTCKASGFDLGFYFYACWVRQAPGKGLEWIACIYTAGSGSTYYASWAKGRFTISKASSTTVTLQMTSLAAADTATYFCARSTANTRSTYYLNLWGPGTLVTVSS
# VL: DVVMTQTPASVSEPVGGTVTIKCQASQRISSYLSWYQQKPGQRPKLLIFGASTLASGVPSRFKGSGSGTEYTLTISDLECADAATYYCQSYAYFDSNNWHAFGGGTEVVVRT
# notes: as for B2
# Legend:
# [1] = biological target: T2, human MSLN-R3-his protein (human, UniProt Q13421 487-598); experiment: ELISA, antibody 0 nM (blank)
# T2 construct: MSLN-R3 = Met487-Ser598; also called hMSLN-R3-his; not shown: histidine tag
# [2] = biological target: T2, human MSLN-R3-his protein; experiment: ELISA, antibody 10 nM
# [3] = biological target: T3, human MSLN-R2-his protein (human, UniProt Q13421 391-486); experiment: ELISA, antibody 0.0001 nM
# T3 construct: MSLN-R2 = Ser391-Asn486; also called hMSLN-R2-his; not shown: histidine tag
# [4] = biological target: T2, human MSLN-R3-his protein; experiment: ELISA, antibody 100 nM
# [5] = biological target: T3, human MSLN-R2-his protein; experiment: ELISA, antibody 0.01 nM
# [6] = biological target: T3, human MSLN-R2-his protein; experiment: ELISA, antibody 1 nM
# [7] = biological target: T1, human MSLN-R3-3 polypeptide (purchased …); experiment: ELISA, antibody 1 nM
# [8] = biological target: T2, human MSLN-R3-his protein; experiment: ELISA, antibody 1 nM
# [9] = biological target: T3, human MSLN-R2-his protein; experiment: ELISA, antibody 1 nM; remark: listed apart in the source
# [10] = biological target: T2, human MSLN-R3-his protein; experiment: ELISA, antibody 0.01 nM
# [11] = biological target: T3, human MSLN-R2-his protein; experiment: ELISA, antibody 0.1 nM
# [12] = biological target: T3, human MSLN-R2-his protein; experiment: ELISA, antibody 0.001 nM
# [13] = biological target: T2, human MSLN-R3-his protein; experiment: ELISA, antibody 0.0001 nM
# [14] = biological target: T2, human MSLN-R3-his protein; experiment: ELISA, antibody 0.1 nM
# [15] = biological target: T3, human MSLN-R2-his protein; experiment: ELISA, antibody 0 nM (blank)
# [16] = biological target: T2, human MSLN-R3-his protein; experiment: ELISA, antibody 1 nM; remark: listed apart in the source
# [17] = biological target: T3, human MSLN-R2-his protein; experiment: ELISA, antibody 100 nM
# [18] = biological target: T2, human MSLN-R3-his protein; experiment: ELISA, antibody 0.001 nM
# [19] = biological target: T3, human MSLN-R2-his protein; experiment: ELISA, antibody 10 nM
# [20] = biological target: T4, human MSLN-R3-his protein (human, UniProt Q13421 487-598); experiment: ELISA, coated antigen, 0 nM antibody (blank)
# T4 construct: also called hMSLN-R3-his; not shown: histidine tag
# [21] = biological target: T4, human MSLN-R3-his protein; experiment: ELISA, coated antigen, 1 nM antibody
# [22] = biological target: T5, human MSLN-R2-his protein (human, UniProt Q13421 391-486); experiment: ELISA, coated antigen, 20 nM antibody
# T5 construct: also called hMSLN-R2-his; not shown: histidine tag
# [23] = biological target: T4, human MSLN-R3-his protein; experiment: ELISA, coated antigen, 20 nM antibody
# [24] = biological target: T5, human MSLN-R2-his protein; experiment: ELISA, coated antigen, 0.2 nM antibody
# [25] = biological target: T4, human MSLN-R3-his protein; experiment: ELISA, coated antigen, 0.2 nM antibody
# [26] = biological target: T4, human MSLN-R3-his protein; experiment: ELISA, coated antigen, 0.01 nM antibody
# [27] = biological target: T4, human MSLN-R3-his protein; experiment: ELISA, coated antigen, 0.0001 nM antibody
# [28] = biological target: T4, human MSLN-R3-his protein; experiment: ELISA, coated antigen, 0.001 nM antibody
# [29] = biological target: T4, human MSLN-R3-his protein; experiment: ELISA, coated antigen, 100 nM antibody
# [30] = biological target: T4, human MSLN-R3-his protein; experiment: ELISA, coated antigen, 0.1 nM antibody
# [31] = biological target: T4, human MSLN-R3-his protein; experiment: ELISA, coated antigen, 10 nM antibody
# [32] = biological target: T6, chimeric human MSLN-R3 / chicken MSLN-R1-2 protein on HEK293T cells (clone A5) (chicken; human); experiment: FACS, HEK293T-hR3/chickR1-2-A5 cells, antibody 20 nM
# T6 construct: range 327-514; Human R1-R2 replaced by chicken R1-R2; also called HEK293T-chickR1-2/hR3-A5; HEK293T-hR3/chickR1-2-A5
# [33] = biological target: T6, chimeric human MSLN-R3 / chicken …; experiment: FACS, HEK293T-hR3/chickR1-2-A5 cells, antibody 0.2 nM
# T6 sequence (Q13421 495-614, change not shown): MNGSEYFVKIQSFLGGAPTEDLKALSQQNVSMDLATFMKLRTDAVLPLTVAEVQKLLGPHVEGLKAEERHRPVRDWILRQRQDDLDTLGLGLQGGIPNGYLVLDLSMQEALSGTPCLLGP
Binder,OD450 nm [1],OD450 nm [2],OD450 nm [3],OD450 nm [4],OD450 nm [5],OD450 nm [6],OD450 nm [7],OD450 nm [8],OD450 nm [9],OD450 nm [10],OD450 nm [11],OD450 nm [12],OD450 nm [13],OD450 nm [14],OD450 nm [15],OD450 nm [16],OD450 nm [17],OD450 nm [18],OD450 nm [19],also measured
B1,0.05,0.05,0.05,0.05,0.07,1.49,0.09,0.05,1.49,0.05,0.2,0.05,0.05,0.05,0.05,0.05,2.5,0.05,2.01,
B2,,,,,,,,,,,,,,,,,,,,OD450 nm [20]: 0.05 OD450 nm; OD450 nm [21]: 0.22 OD450 nm; OD450 nm [22]: 1.44 OD450 nm; OD450 nm [23]: 1.89 OD450 nm; OD450 nm [24]: 0.13 OD450 nm; OD450 nm [25]: 0.87 OD450 nm; OD450 nm [26]: 0.05 OD450 nm; OD450 nm [27]: 0.05 OD450 nm; OD450 nm [28]: 0.05 OD450 nm; OD450 nm [29]: 1.81 OD450 nm; OD450 nm [30]: 0.07 OD450 nm; OD450 nm [31]: 1.04 OD450 nm
B3,0.05,1.75,0.04,2.29,0.04,0.05,0.98,0.62,0.05,0.06,0.05,0.04,0.05,0.12,0.05,0.62,0.7,0.05,0.11,
B4,,,,,,,,,,,,,,,,,,,,MFI [32]: 17900; MFI [33]: 767
